Results: the supplement of paper PMC10065799, “High-throughput profiling of sequence recognition by tyrosine kinases and SH2 domains using bacterial peptide display” (eLife, 2023)

Key:
c-Src = experiment: phosphorylation enrichment, bacterial display (enrichment ratio); higher = better substrate or ligand; peptides without Tyr show the background
EPHB1 = EPHB1 (UniProt P54762); experiment: as above
Fer (mouse) = experiment: as above
Jak2 = Jak2 (UniProt O60674); experiment: as above
Hck = Hck (UniProt P08631); experiment: as above
EPHB2 = EPHB2 (UniProt P29323); experiment: as above
AncSZ = experiment: as above
Fyn = Fyn (UniProt P06241); experiment: as above
MERTK = MERTK (UniProt Q12866); experiment: as above
c-Abl (mouse) = experiment: as above
FGFR3 = FGFR3 (UniProt P22607); experiment: as above
Fes = Fes (UniProt P07332); experiment: as above
FGFR1 = FGFR1 (UniProt P11362); experiment: as above
SHP2-C SH2 = experiment: SH2 binding enrichment of the phosphorylated peptide, bacterial display (enrichment ratio); higher = better substrate or ligand; peptides without Tyr show the background
Grb2 SH2 = Grb2 SH2 (UniProt P62993); experiment: as above
c-Src SH2 = experiment: as above
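Wherever SH2 binding enrichment of the phosphorylated peptide, bacterial display is given: peptide library displayed on the E. coli surface as eCPX fusions, selected cells deep-sequenced, score is each peptide's frequency after selection divided by its frequency in the input.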
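Wherever phosphorylation enrichment, bacterial display is given: 11-residue human phosphosite peptides and single-mutation variants displayed on the E. coli surface, counted by deep sequencing, each peptide's frequency after selection divided by its frequency in the unselected input library; frequency after pTyr selection over input frequency; kinase dosed for 20-30% of maximal phosphorylation in three min.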

Hck, sequence (P08631 whole entry, looked up): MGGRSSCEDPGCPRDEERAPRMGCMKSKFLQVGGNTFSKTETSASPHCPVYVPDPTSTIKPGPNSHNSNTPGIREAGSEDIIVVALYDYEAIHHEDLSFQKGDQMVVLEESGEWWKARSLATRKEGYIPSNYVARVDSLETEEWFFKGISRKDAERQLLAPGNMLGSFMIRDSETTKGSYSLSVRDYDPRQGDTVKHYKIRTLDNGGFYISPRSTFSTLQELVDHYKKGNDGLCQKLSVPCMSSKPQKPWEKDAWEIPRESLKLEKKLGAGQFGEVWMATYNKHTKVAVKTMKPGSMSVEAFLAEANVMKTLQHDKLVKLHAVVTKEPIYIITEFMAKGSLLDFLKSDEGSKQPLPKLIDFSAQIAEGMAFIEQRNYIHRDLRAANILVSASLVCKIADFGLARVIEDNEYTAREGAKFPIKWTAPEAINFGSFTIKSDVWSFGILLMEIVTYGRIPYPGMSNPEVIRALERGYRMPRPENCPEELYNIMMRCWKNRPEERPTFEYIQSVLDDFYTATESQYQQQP
EPHB2, sequence (P29323 whole entry, looked up): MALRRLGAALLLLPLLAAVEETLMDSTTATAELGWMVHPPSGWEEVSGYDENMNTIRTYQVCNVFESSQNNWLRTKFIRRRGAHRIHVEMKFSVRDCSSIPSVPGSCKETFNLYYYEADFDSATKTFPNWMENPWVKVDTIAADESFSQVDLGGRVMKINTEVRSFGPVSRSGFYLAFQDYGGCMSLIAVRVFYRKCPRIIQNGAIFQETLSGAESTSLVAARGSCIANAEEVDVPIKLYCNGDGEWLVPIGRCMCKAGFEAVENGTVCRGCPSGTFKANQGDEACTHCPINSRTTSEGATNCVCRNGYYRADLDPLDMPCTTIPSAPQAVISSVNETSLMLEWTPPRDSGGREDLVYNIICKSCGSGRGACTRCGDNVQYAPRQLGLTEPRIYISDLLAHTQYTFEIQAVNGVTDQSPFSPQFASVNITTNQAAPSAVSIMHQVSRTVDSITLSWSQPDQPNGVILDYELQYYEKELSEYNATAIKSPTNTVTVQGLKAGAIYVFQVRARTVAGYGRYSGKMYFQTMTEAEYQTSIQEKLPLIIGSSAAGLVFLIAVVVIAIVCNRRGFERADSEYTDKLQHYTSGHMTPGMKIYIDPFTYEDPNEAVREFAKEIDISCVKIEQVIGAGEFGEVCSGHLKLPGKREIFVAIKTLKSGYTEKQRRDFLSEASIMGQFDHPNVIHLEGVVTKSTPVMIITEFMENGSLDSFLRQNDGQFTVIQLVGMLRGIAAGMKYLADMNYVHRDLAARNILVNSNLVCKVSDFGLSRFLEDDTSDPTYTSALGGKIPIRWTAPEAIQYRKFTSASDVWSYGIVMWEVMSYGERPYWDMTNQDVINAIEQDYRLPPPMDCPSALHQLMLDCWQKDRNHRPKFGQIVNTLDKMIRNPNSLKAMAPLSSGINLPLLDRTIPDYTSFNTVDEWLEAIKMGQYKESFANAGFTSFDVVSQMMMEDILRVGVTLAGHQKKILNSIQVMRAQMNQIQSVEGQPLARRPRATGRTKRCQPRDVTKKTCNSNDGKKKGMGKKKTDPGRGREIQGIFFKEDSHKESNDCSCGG
Jak2, sequence (O60674 whole entry, looked up): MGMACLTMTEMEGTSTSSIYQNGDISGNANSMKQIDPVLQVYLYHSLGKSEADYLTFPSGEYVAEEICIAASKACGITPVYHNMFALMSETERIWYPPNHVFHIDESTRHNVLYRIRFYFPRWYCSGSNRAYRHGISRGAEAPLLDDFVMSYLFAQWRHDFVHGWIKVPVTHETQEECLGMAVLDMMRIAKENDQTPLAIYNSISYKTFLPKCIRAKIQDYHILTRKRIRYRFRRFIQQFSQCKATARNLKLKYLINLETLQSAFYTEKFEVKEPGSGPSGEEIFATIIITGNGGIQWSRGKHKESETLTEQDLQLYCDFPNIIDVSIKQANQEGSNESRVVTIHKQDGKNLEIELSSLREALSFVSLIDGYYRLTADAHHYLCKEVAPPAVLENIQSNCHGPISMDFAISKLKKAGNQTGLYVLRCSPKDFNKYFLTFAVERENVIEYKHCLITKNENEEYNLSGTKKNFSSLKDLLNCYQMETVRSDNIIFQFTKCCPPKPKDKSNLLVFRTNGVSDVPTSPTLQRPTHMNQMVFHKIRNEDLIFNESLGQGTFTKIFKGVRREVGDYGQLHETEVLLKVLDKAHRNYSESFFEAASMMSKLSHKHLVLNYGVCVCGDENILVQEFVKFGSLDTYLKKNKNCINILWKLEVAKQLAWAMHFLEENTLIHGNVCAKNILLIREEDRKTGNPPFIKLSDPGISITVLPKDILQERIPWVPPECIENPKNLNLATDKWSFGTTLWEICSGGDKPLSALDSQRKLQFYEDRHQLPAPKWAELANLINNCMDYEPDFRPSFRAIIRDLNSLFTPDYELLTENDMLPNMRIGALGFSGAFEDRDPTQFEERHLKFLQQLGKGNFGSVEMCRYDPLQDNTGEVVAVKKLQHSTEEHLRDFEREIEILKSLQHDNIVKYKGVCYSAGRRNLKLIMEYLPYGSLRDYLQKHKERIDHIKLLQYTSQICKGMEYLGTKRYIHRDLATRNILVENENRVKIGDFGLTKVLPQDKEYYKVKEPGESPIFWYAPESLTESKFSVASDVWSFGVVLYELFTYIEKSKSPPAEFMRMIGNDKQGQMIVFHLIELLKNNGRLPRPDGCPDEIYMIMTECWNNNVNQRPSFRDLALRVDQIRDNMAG
Fyn, sequence (P06241 whole entry, looked up): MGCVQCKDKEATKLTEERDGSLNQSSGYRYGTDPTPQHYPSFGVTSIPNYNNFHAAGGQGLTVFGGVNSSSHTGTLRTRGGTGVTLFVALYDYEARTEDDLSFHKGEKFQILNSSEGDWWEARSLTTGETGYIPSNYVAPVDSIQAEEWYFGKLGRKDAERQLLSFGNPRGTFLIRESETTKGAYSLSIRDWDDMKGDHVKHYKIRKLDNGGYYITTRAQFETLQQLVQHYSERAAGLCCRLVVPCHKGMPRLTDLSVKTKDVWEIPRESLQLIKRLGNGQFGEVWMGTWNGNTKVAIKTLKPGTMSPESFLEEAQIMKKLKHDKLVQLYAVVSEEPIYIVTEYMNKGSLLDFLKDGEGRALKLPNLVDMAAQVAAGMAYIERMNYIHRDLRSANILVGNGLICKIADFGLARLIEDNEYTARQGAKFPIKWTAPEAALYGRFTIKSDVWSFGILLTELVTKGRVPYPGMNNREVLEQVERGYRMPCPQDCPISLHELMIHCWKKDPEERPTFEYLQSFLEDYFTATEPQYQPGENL
EPHB1, sequence (P54762 whole entry, looked up): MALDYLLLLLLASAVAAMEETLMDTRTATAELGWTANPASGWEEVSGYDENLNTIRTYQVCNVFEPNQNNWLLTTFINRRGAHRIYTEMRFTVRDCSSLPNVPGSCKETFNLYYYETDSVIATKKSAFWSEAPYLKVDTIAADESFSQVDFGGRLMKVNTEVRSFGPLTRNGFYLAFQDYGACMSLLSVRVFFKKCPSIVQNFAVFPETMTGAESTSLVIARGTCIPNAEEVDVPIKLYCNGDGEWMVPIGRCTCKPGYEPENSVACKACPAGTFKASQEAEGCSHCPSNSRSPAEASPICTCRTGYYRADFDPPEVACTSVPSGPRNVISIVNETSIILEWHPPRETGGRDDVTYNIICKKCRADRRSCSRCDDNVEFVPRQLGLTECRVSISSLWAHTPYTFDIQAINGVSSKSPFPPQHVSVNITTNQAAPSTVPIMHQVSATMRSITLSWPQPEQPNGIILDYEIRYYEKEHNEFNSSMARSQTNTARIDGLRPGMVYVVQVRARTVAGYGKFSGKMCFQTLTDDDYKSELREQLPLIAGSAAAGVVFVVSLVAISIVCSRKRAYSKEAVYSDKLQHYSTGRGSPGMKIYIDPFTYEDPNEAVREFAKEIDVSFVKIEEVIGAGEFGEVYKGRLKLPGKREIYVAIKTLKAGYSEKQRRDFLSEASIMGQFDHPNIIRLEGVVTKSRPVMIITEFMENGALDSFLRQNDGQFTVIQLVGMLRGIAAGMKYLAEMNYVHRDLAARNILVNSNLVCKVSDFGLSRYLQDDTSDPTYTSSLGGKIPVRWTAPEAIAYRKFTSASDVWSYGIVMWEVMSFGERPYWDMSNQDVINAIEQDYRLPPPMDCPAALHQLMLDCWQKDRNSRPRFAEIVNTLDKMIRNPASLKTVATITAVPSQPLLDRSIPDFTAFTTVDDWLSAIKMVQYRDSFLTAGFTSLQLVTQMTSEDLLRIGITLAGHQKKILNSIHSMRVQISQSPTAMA
FGFR1, sequence (P11362 whole entry, looked up): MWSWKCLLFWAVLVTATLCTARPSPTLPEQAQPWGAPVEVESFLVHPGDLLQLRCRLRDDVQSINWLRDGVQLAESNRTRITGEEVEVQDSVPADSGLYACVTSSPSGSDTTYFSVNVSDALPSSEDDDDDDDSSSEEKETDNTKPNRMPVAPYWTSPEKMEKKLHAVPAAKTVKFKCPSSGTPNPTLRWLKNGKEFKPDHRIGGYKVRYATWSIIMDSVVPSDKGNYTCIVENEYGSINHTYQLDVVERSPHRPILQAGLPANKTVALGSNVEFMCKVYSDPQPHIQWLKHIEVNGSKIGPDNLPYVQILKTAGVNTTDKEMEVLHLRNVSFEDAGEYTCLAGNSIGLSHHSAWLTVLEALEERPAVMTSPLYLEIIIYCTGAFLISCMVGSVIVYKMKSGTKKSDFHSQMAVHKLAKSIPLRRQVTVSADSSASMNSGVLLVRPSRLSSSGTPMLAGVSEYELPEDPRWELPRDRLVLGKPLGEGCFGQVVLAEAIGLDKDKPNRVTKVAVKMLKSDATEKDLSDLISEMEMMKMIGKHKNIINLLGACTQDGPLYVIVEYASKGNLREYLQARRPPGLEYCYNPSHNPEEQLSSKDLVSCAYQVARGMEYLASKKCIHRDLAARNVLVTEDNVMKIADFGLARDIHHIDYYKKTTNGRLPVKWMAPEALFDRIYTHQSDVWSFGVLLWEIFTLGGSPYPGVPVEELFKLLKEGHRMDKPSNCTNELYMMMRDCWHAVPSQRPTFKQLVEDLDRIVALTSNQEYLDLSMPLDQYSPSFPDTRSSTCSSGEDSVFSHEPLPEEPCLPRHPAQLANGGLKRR

Sequence | SH2 binding enrichment (SHP2-C SH2) | SH2 binding enrichment (Grb2 SH2) | SH2 binding enrichment (c-Src SH2) | phosphorylation enrichment (c-Src) | phosphorylation enrichment (EPHB1) | phosphorylation enrichment (Fer (mouse)) | phosphorylation enrichment (Jak2) | phosphorylation enrichment (Hck) | phosphorylation enrichment (EPHB2) | phosphorylation enrichment (AncSZ) | phosphorylation enrichment (Fyn) | phosphorylation enrichment (MERTK) | phosphorylation enrichment (c-Abl (mouse)) | phosphorylation enrichment (FGFR3) | phosphorylation enrichment (Fes) | phosphorylation enrichment (FGFR1)
PFNAEYGGGGG [AKR1B10_Y316] | 0.417 | 0.554 | 0.379 | 0.285 | 1.35 | 0.871 | 0.627 | 1.66 | 0.693 | 1.19 | 1.14 | 0.879 | 0.43 | 0.802 | 1.49 | 1.06
AAESTYDKILK [GDNF_Y156_T154S] | 0.672 | 1.08 | 5.23 | 0.719 | 0.463 | 0.418 | 0.682 | 1.75 | 0.508 | 0.681 | 0.76 | 0.401 | 0.563 | 0.586 | 0.886 | 0.391
EKGSNYCLCRT [ASIC2_Y357_D354G] | 0.806 | 0.947 | 0.645 | 0.393 | 0.47 | 0.378 | 0.572 | 0.349 | 0.45 | 0.732 | 0.504 | 0.458 | 0.56 | 0.497 | 0.607 | 0.469
IEKLTYIDEWF [CPS1_Y872_K875E] | 0.719 | 0.698 | 0.488 | 0.544 | 0.624 | 0.548 | 1.17 | 0.472 | 0.557 | 1.18 | 0.453 | 0.488 | 0.81 | 0.737 | 1.35 | 0.567
LDFNEYFRFLN [HPRT1_Y198_D201Y_YF] | 1.2 | 1.49 | 0.719 | 3.62 | 0.592 | 0.562 | 6.54 | 1.08 | 0.924 | 2.34 | 2.25 | 0.573 | 1.6 | 2.1 | 1.29 | 2.7
DPADRYLTEQC [CDKL5_Y286] | 0.747 | 0.918 | 0.507 | 0.523 | 0.485 | 0.53 | 0.947 | 0.506 | 0.558 | 0.986 | 0.478 | 0.446 | 0.713 | 0.731 | 1.12 | 0.458
LNNIIYRLERA [CUX2_Y1470_V1472L] | 1.84 | 1.62 | 0.557 | 3.45 | 1.24 | 0.812 | 1.27 | 1.01 | 1.37 | 1.67 | 2.59 | 1.1 | 1.31 | 1.19 | 1.37 | 0.907
ELANFYKLHHI [AK7_Y391_YF] | 1.01 | 0.901 | 0.481 | 0.819 | 0.638 | 0.874 | 0.922 | 0.796 | 0.863 | 0.63 | 0.689 | 0.67 | 0.8 | 0.672 | 1.06 | 0.561
CRWKRYQRSHD [GDPD5_Y30] | 0.604 | 0.679 | 0.483 | 0.579 | 0.458 | 0.469 | 0.573 | 0.527 | 0.516 | 0.675 | 0.472 | 0.487 | 0.482 | 0.508 | 0.563 | 0.481
ATPSQYMTFLH [DYNC2H1_Y2872_R2871Q] | 2.86 | 0.799 | 0.75 | 2.62 | 0.593 | 0.541 | 0.99 | 2.29 | 0.473 | 0.903 | 3.39 | 1.06 | 0.885 | 0.651 | 0.791 | 0.562
SSDPDYLAAVD [GLB1_Y154] | 0.742 | 1.02 | 0.482 | 0.55 | 0.693 | 0.604 | 1.12 | 0.631 | 0.74 | 1.34 | 0.656 | 0.487 | 0.814 | 0.885 | 1.27 | 0.56
VVLEDYLDIKH [CLCNKB_Y138_N143H] | 0.575 | 0.76 | 0.54 | 0.458 | 0.782 | 0.506 | 0.959 | 0.534 | 0.66 | 1.25 | 0.419 | 0.506 | 0.716 | 1.05 | 1.3 | 1.24
FGMSSYITRED [FNDC3B_Y180_T179S_YF] | 0.937 | 0.715 | 0.501 | 0.442 | 0.594 | 0.544 | 0.559 | 0.536 | 0.653 | 0.84 | 0.59 | 0.527 | 0.579 | 0.693 | 0.891 | 0.556
ISKQGYDEAGP [ACTC1_Y364_E363G] | 0.613 | 0.916 | 1.42 | 0.541 | 0.601 | 0.507 | 0.931 | 0.572 | 0.532 | 0.897 | 0.452 | 0.666 | 0.793 | 0.567 | 1.01 | 0.539

Second part, led by results:

SH2 binding enrichment (SHP2-C SH2) | SH2 binding enrichment (Grb2 SH2) | SH2 binding enrichment (c-Src SH2) | Sequence | phosphorylation enrichment (c-Src) | phosphorylation enrichment (EPHB1) | phosphorylation enrichment (Fer (mouse)) | phosphorylation enrichment (Jak2) | phosphorylation enrichment (Hck) | phosphorylation enrichment (EPHB2) | phosphorylation enrichment (AncSZ) | phosphorylation enrichment (Fyn) | phosphorylation enrichment (MERTK) | phosphorylation enrichment (c-Abl (mouse)) | phosphorylation enrichment (FGFR3) | phosphorylation enrichment (Fes) | phosphorylation enrichment (FGFR1)
0.797 | 1.11 | 0.698 | WGLCSYFETSK [MAGED2_Y448_R446C_YF] | 0.698 | 0.671 | 0.62 | 1.34 | 0.523 | 0.633 | 1.29 | 0.423 | 0.403 | 0.926 | 0.847 | 1.55 | 0.768
0.539 | 0.663 | 0.366 | SVTCRYSPALN [TP53_Y126_T125R] | 0.427 | 0.508 | 0.437 | 0.805 | 0.392 | 0.446 | 0.864 | 0.397 | 0.514 | 0.611 | 0.561 | 0.938 | 0.413
0.7 | 0.982 | 0.484 | IGNGFYFHVFS [MYBPC3_Y1136_R1138H_YF] | 0.381 | 0.639 | 0.449 | 1.28 | 0.423 | 0.643 | 1.06 | 0.4 | 0.419 | 1.04 | 0.757 | 1.31 | 0.472
0.376 | 0.788 | 0.35 | AFGNLYGSRKQ [YIPF7_Y59_YF] | 1.09 | 0.357 | 0.409 | 0.505 | 2.93 | 0.531 | 0.526 | 0.718 | 0.519 | 0.657 | 0.398 | 0.55 | 0.397
0.712 | 0.83 | 0.553 | RSSKMYLKTRS [LPL_Y329] | 0.452 | 0.484 | 0.541 | 0.827 | 0.758 | 0.792 | 1.07 | 0.631 | 1.53 | 0.585 | 0.885 | 1.24 | 0.8
0.854 | 1.01 | 5.88 | YPRTGYSVPYG [TGM1_Y370_L366P] | 0.406 | 0.418 | 0.383 | 0.925 | 0.453 | 0.519 | 0.714 | 0.459 | 0.55 | 0.681 | 0.545 | 0.78 | 0.525
0.889 | 1.31 | 1.21 | GGYTRYCDGKK [PROS1_Y266_C265R] | 0.338 | 0.347 | 0.357 | 0.759 | 0.446 | 0.386 | 0.649 | 0.365 | 0.4 | 0.528 | 0.436 | 0.585 | 0.37
0.9 | 1.3 | 0.814 | CPPEVYAIMRG [NTRK1_Y757] | 2.39 | 0.976 | 0.51 | 0.87 | 2 | 0.564 | 1.24 | 1.25 | 1.16 | 0.695 | 0.765 | 1.12 | 0.455
0.486 | 0.697 | 0.479 | KITVIYDGACQ [VWDE_Y1035] | 0.721 | 0.599 | 0.574 | 1.14 | 0.711 | 0.664 | 1.1 | 0.51 | 0.437 | 0.837 | 0.778 | 1.28 | 0.438
0.865 | 0.86 | 0.666 | DYYDLYGGQKF [PTPN11_Y66_E69Q] | 6.47 | 8.34 | 2.32 | 5.14 | 8.28 | 8.29 | 2.69 | 7.93 | 5.66 | 0.814 | 13.5 | 1.02 | 15.9
1.52 | 2.38 | 1.38 | FMIISYVLIIR [OR1D2_Y218_V214M] | 0.437 | 0.225 | 0.491 | 0.383 | 0.553 | 0.483 | 0.936 | 0.426 | 0.446 | 0.625 | 0.559 | 0.631 | 0.651
0.797 | 1.11 | 0.882 | HDRNTYEKFLG [TF_Y666_YF] | 2.82 | 0.525 | 0.378 | 1.29 | 1.44 | 0.951 | 1.17 | 2.42 | 0.936 | 0.99 | 0.751 | 1.33 | 0.484
1.57 | 0.878 | 0.966 | RYLYYYSYLLK [PTEN_Y178_V175L] | 1.76 | 3.51 | 0.676 | 3.29 | 1.65 | 1.94 | 1.93 | 0.58 | 5.64 | 2.23 | 2.91 | 1.7 | 3.1
0.377 | 0.549 | 0.493 | KRRGPYETSPS [PLPP7_Y172] | 0.614 | 0.345 | 0.446 | 0.539 | 0.399 | 0.403 | 0.599 | 0.491 | 0.405 | 0.526 | 0.397 | 0.495 | 0.414
0.634 | 0.818 | 0.525 | LAIEGYVVVCK [RHO_Y136_R135G] | 0.526 | 0.75 | 0.459 | 1.09 | 0.747 | 0.826 | 1.5 | 0.604 | 0.528 | 0.991 | 1.02 | 1.41 | 0.707
0.622 | 0.886 | 0.545 | VMSGPYNLKAL [IL1B_Y140_E141N] | 0.758 | 0.534 | 0.508 | 0.959 | 0.473 | 0.475 | 0.888 | 0.596 | 0.507 | 0.643 | 0.556 | 0.765 | 0.569
0.945 | 1.01 | 0.726 | LRFDSYWSFCN [SLC20A2_Y433_S434W_YF] | 2.72 | 1.04 | 0.506 | 1.49 | 2.1 | 0.774 | 1.25 | 2.12 | 0.572 | 0.781 | 1.4 | 1.33 | 1.64
1.11 | 0.885 | 0.726 | VPDANYTSDEE [STK33_Y439] | 0.586 | 0.649 | 0.658 | 1.19 | 0.61 | 0.801 | 1.54 | 0.701 | 0.621 | 2.42 | 0.796 | 1.38 | 0.699
0.501 | 1.68 | 0.937 | TPGPNYCPGYN [USH2A_Y463_R464C] | 0.35 | 0.468 | 0.497 | 0.853 | 0.466 | 0.551 | 0.694 | 0.623 | 0.379 | 0.429 | 0.616 | 1.17 | 0.504
